The values below are quoted from earlier work in article PMC3485249.

pKd: −log10 of the molar value.

The target in this data set is Pygopus PHD PHD (Homo sapiens) (UniProt Q9Y3Y4).

Turning to Pygopus PHD PHD (from UniProt Q9Y3Y4), the pKd was 6.00.
